Test results reported in patent publication US10401365B2, “Inhibition of chemokine CCL7 or receptor CCR3 of same for the treatment and diagnosis of prostate cancer” (Universite Paul Sabatier (Toulouse III), priority 2014, dated 2019).
“And” between values parts separate entries of the source, which are not always exact repeats. Equal values may be shown once.

What was measured:
PC-3 cells [1] = test: Boyden chamber migration of PC-3 cells against conditioned medium from mature adipocytes (CM-Ad, 3T3-F442A); format: cell-based, human
From the text: The monoclonal antibodies targeted against CCR1 (D063-3 clone 141-2) and CCR3 (D083-3, clone 444-11) are obtained from MBL International (Worburn, Mass., USA). The anti-CCR2 (clone E68) and anti-CCR3 (clone Y31) monoclonal antibodies are obtained from Abcam (Cambridge, Mass., USA). The monoclonal antibodies against CXCR2 (clone 48311), CXCR4 (clone 44716) and CCR1 (clone 53504) are obtained from R&D Systems (Minneapolis, Minn., USA).
The inhibitor targeting the receptor CXCR4, AMD3100 (Rosenkilde, Gerlach et al. 2004) is obtained from Sigman Aldrich and is used at final concentrations of 1, 10, 50 and 100 nM. The inhibitor targeting the receptors CXCR1 and CXCR2, SB225002 (White, Lee et al. 1998)) is obtained from Tocris (Bristol, United Kingdom) and is used at final concentrations of 1, 10 and 100 nm. […]
In order to evaluate the ability of tumor cells to migrate according to the culture medium, Boyden chamber migration tests were conducted using 8 μm porosity Greiner bio-one inserts. […] The migration of the tumor cells is evaluated after 12 hrs of migration at 37° C. and 5% CO2 by 1% toluidine blue staining supplemented with 0.1M borax (Sigma, St Louis, Mo., USA) and quantification of the absorbance (measured at 570 nm).

PC-3 cells [2] = test: Migration of PC-3 cells against serum-free medium with recombinant CCL7; format: cell-based, human; settings: dose-dependent, 1-100 ng/ml
Experimental: (§1) In order to evaluate the ability of tumor cells to migrate according to the culture medium, Boyden chamber migration tests were conducted using 8 μm porosity Greiner bio-one inserts. In the lower compartment either culture medium with or without serum, or conditioned medium from F442A adipocytes (CM-Ad), human periprostatic adipose tissue (CM-PPAT), mouse perigonadal adipose tissue (CM-PGAT), adipocytes or vascular fraction cells (SVF) isolated from PPAT or PGAT is introduced. These conditioned media may be pretreated for 30 minutes by adding antibodies blocking the chemokine CCL7. Experiments with the recombinant chemokine CCL7 were also conducted, in this case the chemokine is added to serum-free culture medium to verify the chemoattractant potential thereof on a cell line. In the upper chamber 1×10^5 cells, previously depleted for 6 hours of serum are deposited in serum-free culture medium. […] The migration of the tumor cells is evaluated after 12 hrs of migration at 37° C. and 5% CO2 by 1% toluidine blue staining supplemented with 0.1M borax (Sigma, St Louis, Mo., USA) and quantification of the absorbance (measured at 570 nm).

RM1-BM cells = test: Migration of RM1-BM cells against serum-free medium with recombinant CCL7; format: cell-based, mouse; settings: 100 ng/mL; p<0.01
Experimental: as §1

TRAMP-C1P3 cells [3] = test: Migration of TRAMP-C1P3 cells against serum-free medium with recombinant CCL7; format: cell-based, mouse; settings: 1-100 ng/ml
Experimental: as §1

Du-145 cells = test: Migration of Du-145 cells against serum-free medium with recombinant CCL7; format: cell-based, human; settings: dose-dependent, 1-100 ng/ml
Experimental: as §1

TRAMP-C1P3 cells [4] = test: Migration of shRNA-transfected TRAMP-C1P3 lines against CM-Ad or adipose tissue conditioned medium; format: cell-based, mouse
Experimental: In order to evaluate the ability of tumor cells to migrate according to the culture medium, Boyden chamber migration tests were conducted using 8 μm porosity Greiner bio-one inserts. In the lower compartment either culture medium with or without serum, or conditioned medium from F442A adipocytes (CM-Ad), human periprostatic adipose tissue (CM-PPAT), mouse perigonadal adipose tissue (CM-PGAT), adipocytes or vascular fraction cells (SVF) isolated from PPAT or PGAT is introduced. These conditioned media may be pretreated for 30 minutes by adding antibodies blocking the chemokine CCL7. Experiments with the recombinant chemokine CCL7 were also conducted, in this case the chemokine is added to serum-free culture medium to verify the chemoattractant potential thereof on a cell line. In the upper chamber 1×10^5 cells, previously depleted for 6 hours of serum are deposited in serum-free culture medium. For the migration tests in the presence of blocking antibodies specific for CCR1 or CCR3 or inhibitors of CCR1/CCR3, CCR2, CXCR1/CXCR2 and CXCR4, the tumor cells are previously incubated in a tube with the blocking antibody or the inhibitor for 30 min at 37° C. The migration of the tumor cells is evaluated after 12 hrs of migration at 37° C. and 5% CO2 by 1% toluidine blue staining supplemented with 0.1M borax (Sigma, St Louis, Mo., USA) and quantification of the absorbance (measured at 570 nm).
(§2) The nucleotides targeting the sequence of CCR3 are shown in upper case, whereas the sequence responsible for the hairpin structure and the sequences required for directional cloning are represented in lower case letter. The lentiviral vector LVTHM® is a lentiviral vector (LV) coding for the shRNA CCR3 sequences under the control of the H1 promoter also expressing GFP. The TRAMP-C1P3 cells were then transfected in the presence of m4, m5 or m6-LVTHM for 24 hours at a multiplicity of infection (MOI) of 1:10. The transfected population is selected by GFP expression (cell sorting). These cells were then analyzed by flow cytometry to validate the loss of expression of the CCR3 gene. The control used is the pLVTHM plasmid which expresses an ineffective shRNA sequence.

receptor CCR3 = test: Expression of receptor CCR3 in shRNA-transfected TRAMP-C1P3 cells; format: cell-based, mouse; settings: stable shRNA, lentiviral
Experimental: The tumor cells (from prostate, breast, colon, pancreas, or melanoma) were washed three times in FACS buffer (PBS supplemented with 0.5% BSA and 2% FCS) and fixed with a 3.7% paraformaldehyde solution for 20 min at 4° C. The tumor cells were suspended with anti-CXCR4 (10 μg/ml), anti-CXCR1 (10 μg/ml), anti-CXCR2 (1:25), anti-CCR1 (10 μg/ml), anti-CCR2 (20 μg/ml), anti-CCR3 (10 μg/ml) antibodies or isotypical mouse anti-IgG control antibodies at 4° C. for 2 hours. The tumor cells were incubated with a mouse anti-IgG secondary antibody (dilution to 1:200) coupled with Alexa Fluor 488 or coupled with Cyanine 5 (for cells expressing GFP) for 30 minutes at 4° C. Finally, 2×10^4 cells were analyzed by flow cytometry using a FACScan and FACScalibur flow cytometer (analysis on CellQuest™ software (BD-PharMingen)).
In order to inhibit the expression of the receptor CCR3 (NM_009914) in a stable manner in TRAMP-C1P3 cells, an shRNA approach was used enabling stable negative regulation even after several months of culture. The interfering sequences were generated using the Dharmacon “Center siDesign” tool. The sequences of the sense strands of shRNA generated are as follows:
as §2

TRAMP-C1P3 cells [5] = test: Intraprostatic injection of TRAMP-C1P3 cells in C57BL/6 mice, tumor growth; format: in vivo; settings: for tumor size: 2×10^6 cells intraprostatic, n=11, p<0.001 vs shCtrl
Experimental: Male C57BL/6 mice aged 18 weeks on a normal or high-fat diet were anesthetized with isoflurane. A transverse incision was made at the lower part of the abdomen. The muscles of the abdominal wall were incised, and the bladder and the seminal vesicles were released so as to expose the dorsal lobe of the prostate. A suspension of 2×10^6 cells (in 30 μl of PBS) was then carefully injected under the prostate capsule by means of a gauge 30 needle. The incision was closed using 4-0 suture and clips. The animals were then placed in cages and regular monitoring is conducted in order to monitor macroscopically the general condition of the mouse. After 20 days of tumor establishment, the mice are sacrificed, the primary tumor is thus removed, measured and weighed, and an acquisition in white light and GFP is carried out. The tumors are then placed in a paraformaldehyde solution (4%) and included in paraffin.

c1cc(CN2CCCNCCNCCCNCC2)ccc1CN1CCCNCCNCCCNCC1 [AMD3100]
reduction of migration of PC-3 cells against CM-Ad (PC-3 cells [1]; 100 nM (maximum dose, only dose effective), p<0.05): approximately 20%

O=C(Nc1ccc([N+](=O)[O-])cc1O)Nc1ccccc1Br [SB225002]
inhibition of migration of PC-3 cells induced by CM-Ad (PC-3 cells [1]; 50 nM, p<0.01): approximately 30%

recombinant chemokine CCL7: human recombinant chemokine CCL7, ligand of CCR3, added to serum-free medium as chemoattractant
dose from which induced migration of PC-3 cells is significant compared to medium alone (PC-3 cells [2]): 50 ng/mL | induction of migration of RM1-BM cells with respect to serum-free medium (RM1-BM cells): significant migration | dose from which dose-dependent chemotaxis of TRAMP-C1P3 cells is induced (TRAMP-C1P3 cells [3]): 50 ng/mL | dose from which induced migration of Du-145 cells is significant compared to medium alone (Du-145 cells): 50 ng/mL

B1: m4CCR3: shRNA targeting the gene CCR3, SEQ ID NO: 1 (nucleic acid)
chain: CGCGTCCCCAGACCACACCCTATGAATATTCAAGAGATATTCATAGGGTGTGGTCTTTTTTGGAAAT
migration of shCCR3 TRAMP-C1P3 lines against CM-Ad with respect to control line (TRAMP-C1P3 cells [4]): significant reduction | expression of receptor CCR3 in TRAMP-C1P3 line with respect to control line (shCtrl) (receptor CCR3): significant reduction

B2: m5CCR3: shRNA targeting the gene CCR3, SEQ ID NO: 2 (nucleic acid)
chain: CGCGTCCCCGACCACACCCTATGAATATTTCAAGAGAATATTCATAGGGTGTGGTCTTTTTGGAAAT
migration of shCCR3 TRAMP-C1P3 lines against CM-Ad with respect to control line (TRAMP-C1P3 cells [4]): significant reduction | expression of receptor CCR3 in TRAMP-C1P3 line with respect to control line (shCtrl) (receptor CCR3): significant reduction

B3: m6CCR3: shRNA targeting the gene CCR3, SEQ ID NO: 3 (nucleic acid)
chain: CGCCGTCCCCGGTGAGAGGTTCCGGAAACTTCAAGAGAGTTTCCGGAACCTCTCACCTTTTTGGAAAT
migration of shCCR3 TRAMP-C1P3 lines against CM-Ad with respect to control line (TRAMP-C1P3 cells [4]): significant reduction | migration of shCCR3 TRAMP-C1P3 line against conditioned medium of ND AT-mu-PG with respect to control line (TRAMP-C1P3 cells [4]; ND AT-mu-PG): reduction in the migration is also detected | increase in migration in presence of HFD AT-mu-PG (TRAMP-C1P3 cells [4]; m6CCR3 line, unlike shCtrl line): not significant | expression of receptor CCR3 in TRAMP-C1P3 line with respect to control line (shCtrl) (receptor CCR3): significant reduction | invasion of the dorsal lobe of the prostate (histology, HE) compared with C1P3 Ctrl line (TRAMP-C1P3 cells [5]; histological sections): much less extensive invasion | tumor size (TRAMP-C1P3 cells [5]; mice on normal-fat diet): 220±30 mm3 | tumor size (TRAMP-C1P3 cells [5]; obese mice on high-fat diet): 210±25 mm3 and 200±50 mm3
